Data from PMC6338582, “rA1M-035, a Physicochemically Improved Human Recombinant α1-Microglobulin, Has Therapeutic Effects in Rhabdomyolysis-Induced Acute Kidney Injury” (Antioxidants & Redox Signaling, 2018).
Where a chain is given by its changes, count along the chain named. Each block holds one molecule with its values, some of them ahead of it.

What was measured:
[1] = SEC; 24-mL Superose 12 10/30 GL column, 20 mM Tris-HCl, pH 8.0 + 0.15 M NaCl; 100-200 ug protein loaded; unstressed samples at 0.1 mM or samples stored in PBS at the indicated concentrations, temperatures and times
[2] = target: T1, rA1M (recombinant human α1-microglobulin; rA1M-wt and rA1M-035) (Homo sapiens, UniProt P02760, N115D/N36D/R85H); assay: SPR (BIAcore X100), rA1M captured on immobilized anti-His antibody; type: binding
T1 construct: gene AMBP
T1 sequence (P02760 20-202 N36D/R85H/N115D): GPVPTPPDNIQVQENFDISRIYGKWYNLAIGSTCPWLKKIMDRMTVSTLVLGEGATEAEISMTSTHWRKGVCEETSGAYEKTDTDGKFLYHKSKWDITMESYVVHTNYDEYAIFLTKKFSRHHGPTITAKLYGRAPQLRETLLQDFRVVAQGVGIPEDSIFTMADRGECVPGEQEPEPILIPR

[3] = target: T2, rA1M (recombinant human α1-microglobulin; rA1M-wt and rA1M-035) (Homo sapiens, UniProt P02760); assay: as above; type: binding
T2 construct: gene AMBP
T2 sequence (P02760 20-202): T1 sequence (P02760 20-202 N36D/R85H/N115D) with D17N, H66R, D96N

P02760 = assay: SEC; 24-mL Superose 12 10/30 GL column, 20 mM Tris-HCl, pH 8.0 + 0.15 M NaCl; 100-200 ug protein loaded; unstressed samples at 0.1 mM or samples stored in PBS at the indicated concentrations, temperatures and times

Molecule: rA1M-035, recombinant human α1-microglobulin variant with N17D, R66H and N96D
Monomer (%) [1]: 93%

Kd [2]: 4.45 µM
Kd [3]: 15.8 µM
Molecule: C=CC1=C(C)C2=Cc3c(C=C)c(C)c4[n]3[Fe]([Cl])[n]3c(c(C)c(CCC(=O)O)c3=CC3=NC(=C4)C(C)=C3CCC(=O)O)=CC1=N2 [heme]

B1: recombinant wild-type human α1-microglobulin (rA1M-wt) (protein)
chain: GPVPTPPDNIQVQENFNISRIYGKWYNLAIGSTCPWLKKIMDRMTVSTLVLGEGATEAEISMTSTRWRKGVCEETSGAYEKTDTDGKFLYHKSKWNITMESYVVHTNYDEYAIFLTKKFSRHHGPTITAKLYGRAPQLRETLLQDFRVVAQGVGIPEDSIFTMADRGECVPGEQEPEPILIPRV
Monomer (%) (P02760): 87%
